Here are results for eight molecules from patent US20250320278A1 (LA JOLLA INSTITUTE FOR IMMUNOLOGY, published 2025).

The target in test [1] is SARS-CoV-2 N protein RNA-binding domain (SARS-CoV-2, UniProt P0DTC9 44-180). In words: Octet (BLI) kinetics. A general note: Biolayer interferometry detects binding as a change in optical thickness at a sensor tip.
For test [2], the target named is T1, SARS-CoV-2 N protein, full-length (SARS-CoV-2, UniProt P0DTC9 1-419).
T1 construct: mature; also called SARS-CoV-2 nucleoprotein
In words: Octet (BLI) kinetics.

Test [3] deals with T2, SARS-CoV-2 N protein oligomerization domain (SARS-CoV-2, UniProt P0DTC9 247-364).
T2 construct: also called N olig. domain; OD
In words: Octet, KD (nM) heat map.

B1: NP3-B2 (antibody, V domains shown)
VH: QIQLVQSGGGLVKPGGSLKLSCAASGFTFSDYYMSWVRQTPEKRLEWVATISDGGSYTYYPDSVKGRFTISRDNAKNNLYLHMSSLKSEDTAMYYCARGSTYGNPLDYWGQGTTLTVSS
VL: DIQMTQTTSSLSASLGDRVTINCSASQGISNYLNWYQQKPDGTVKLLIYFTSSLHSGFPSRFSGSGSGTDFSLTISNLEPEDIATYYCQQYSKLPFTFGSGTKLEIK
Turning to B1, the Kd amounted to 0.9 nM in test [1] and 1.51 nM in test [2]. For the same molecule, the binding result in test [3] is on record as “no binding”.

B2: NP3-E5 (antibody, V domains shown)
VH: EVQLVESGGGLVKPGGSLKLSCAASGFTFSDYYMSWVRQTPEKRLEWVATISDGGNYTYYPDSVKGRFTISRDNAKNNLYLQMSSLKSEDTAMYYCARGSTYGNPLDHWGQGTTLTVSS
VL: DIQMTQTTSSLSASLGDRVTINCSASQGISNYLNWYQQKPDGTVKLLIYYTSILHSGVPSRFSGSGSGTDYSLTISNLEPEDIATYYCQQYSKLPFTFGSGTKLEIK
With B2, the Kd in test [1] turned out to be 1.38 nM; in test [2], 0.8 nM. In test [3], the binding result is reported as “no binding”.

B3: NP3-E2 (antibody, V domains shown)
VH: EVQLQQSGPEVVRPGVSVKISCKGSGYTFTDYALHWVKQSHTKSLEWIGVISTYSGTTNYNQNFKGKATMAVDKSSSTAYMELARLTSEDSAIYYCASGGNYGLDYWGQGTSVTVSS
VL: DIVMTQSHKFMSTSVGDRVSITCKANQDVGSAVAWYQEKPGQSPKLLIYWTSTRHTGVPDRFTGNGSGTDFTLTISNVQSEDLVDYFCQQYSRYPLTFGSGTKLELK
Consider B3, for which the affinity in test [2], expressed as Kd, was 0.57 nM. Also, the binding result in test [3] is listed as “no binding”.

B4: NP3-G5 (antibody, V domains shown)
VH: EVQLVESGPELKKPGEPVRISCKASGYTFTDYGMNWVKQAPGKGLKWMGWINTYTGEPTYADDFKGRFAFSLETSASTAFLQITNLKNEDTATYFCARAPLLRSYFDYWGQGTSVTVSS
VL: DIVMTQSHKFMSTSVGDRISITCKASQDVSTAVVWYQQKPGQSLKLLIYSASYRYTGVPDRFTGSGSGTDFTFTISSVQAEDLAIYYCQQYYSTPFTFGSGTKLEIK
As to B4, in test [3], the binding result is on record as “no binding”.

B5: NP3-D5 (antibody, V domains shown)
VH: DVQLQESGPELVRPGVSVKISCKGSGYTFTDYVMHWVKQSHAKSLEWIGVISTYSGNTNYNQKFKGKATMTVDKFSNTAYMELARLTSEDSAIYYCTRGTGDFDYWGQGTTLTVSS
VL: DIVMTQSHKFMSTSVGDRVSITCKASQDVGTAVAWYQQKPGQSPKLLIYWASTRHTGVPDRFTGSGSGTDFTLTISNVQSEDLADYFCHQYSSYPYTFGGGTKLEIK
For B5, the binding result in test [3] is “no binding”.

B6: NP3-A11 (antibody, V domains shown)
VH: EVQLQESGPELKKPGETVKISCKVSGYTFTNYGMNWVKQAPGKGLKWMGWINTYTGEPKYGDDFKGRFALSLETSAGTAYLRINNLKNEDTATYFCARSHGNYENHFDYWGQGTTLTVSS
VL: DIQMTQSPSSLSVSVGETVTITCRASENIYSSLAWYQQKQGKSPQLLVYTATDLADGVPSRFSGSGSGSQYSLRINSLQSEDFGSYYCQHFWGFPWTFGGGTKLEIK
On to B6, for which the results for the Kd in test [1] and in test [2] were 1.01 nM and 0.71 nM, respectively. In test [3], the binding result is “no binding”.

B7: NP3-E3 (antibody, V domains shown)
VH: QIQLVQSGPDLKKPGETVKISCKASGYTFTDYSMHWVKQVPGKGLKWMGWINTETDKPTYADDFKGRFAFSLETSASTAYSQINNLKNEDTATYFCARHYKYDEAWSPYWGQGTLVTVSA
VL: DIVLTQSPASLSVSVGETVTITCRASENIYSNLAWYQQKQGQSPQLLVYAATDLADGVPSRFSGSGSGTQYSLKINSLQSEDFGNYYCQHFWGTPWTFGGGTKLEIK
Molecule B7 showed a Kd in test [1] of 1.36 nM. In addition, the binding result in test [3] is listed as “no binding”.

B8: NP3-B1 (antibody, V domains shown)
VH: QVQLQQSGPELVKPGTSVTVYCKASGYTFTTYNIYWVKQSHGKSLEWIGYIDPYNGGTSYNQKFKGKATLTVDKSSSAAYMHLNSLTSEDSAVYYCALPWDYWGQGTTVTVSS
VL: not shown
With B8, binding in test [2] was put at a Kd of 2.01 nM. Also, in test [3], the binding result was “no binding”.

As a reminder, the Kd is the concentration at which binding is half-saturated. A higher Kd goes with weaker binding.
